The first assay concerns the target HLA-A2 MHC class I molecule (human). Description: T2 binding assay, surface HLA-A2 by flow cytometry. On the procedure: Binding affinity to HLA-A2 of synthetic peptides derived from the XAGE-1 amino acid sequence was measured by using T2 cells. The T2 cell line is a T-B fusion hybridoma cell line deficient in TAP1 and TAP2 gene expression available from the ATCC under accession number CRL-1992. T2 cells suspended in Dulbecco's modified Eagles' medium (DMEM) containing 2.5% fetal calf serum (FCS) were incubated overnight with different concentrations of the peptides and 10 μg/ml of β2-microglobulin. The cells were washed twice with phosphate buffered saline (PBS) containing 2% FCS and incubated on ice with anti-HLA-A2 monoclonal antibody (BB7.2, produced by ATCC cell line HB-82) for 30 min. After a single wash, the cells were stained with FITC-labeled goat anti-mouse Ig antibody for 30 min on ice. The cells were washed twice, and expression of HLA-A2 was measured by flow cytometry. The expression level of HLA-A2 was determined as follows: mean fluorescent index (F.I.)=(mean fluorescent intensity of the sample with peptide−mean fluorescent intensity of the sample without peptide)/mean fluorescent intensity of the sample without peptide; mean fluorescent intensity=geometric mean fluorescent intensity of the sample stained with both 1st and 2nd antibody−geometric mean fluorescent intensity of the sample stained with 2nd antibody alone.
A series of peptides derived from xage-1 14 were discovered with enhanced binding to HLA-A2.
Molecule GLFPSAPSPV [2L xage-1 14] showed an FI50 of 1.86 µM.
Consider YLFPSAPSPV [1Y2L xage-1 14], for which the FI50 was 3.04 µM.
GVMPSAPSPV [3M xage-1 14] showed an FI50 of 0.28 µM.
YVFPSAPSPV [1Y xage-1 14]: the FI50 worked out at 2.36 µM.
Same read-out and setting: in the case of GLMPSAPSPV [2L3M xage-1 14] it was 0.62 µM.

For a further assay the target is unchanged. Description: T2 binding assay, surface HLA-A2 by flow cytometry (BB7.2).
Turning to ATRVPEVWIL (Synthetic 10-mer) [xage-1 33 peptide], the F.I.50 is > 50 µM.
Consider HTASPRSPVM (Synthetic 10-mer) [xage-1 57 peptide], for which the F.I.50 is > 50 µM.
